A short description of this data set: soluble on expression in E. coli; label from the status in PepcDB or PDB records.
As to “MKRLNCRRKGIRVRILAIDTSNQTLSIAVCENQKILGSYTATVKRNHSLTLMPAIDYLMSQLNLAPTAIDRFVVAEGPGSYTGLRLGVTTAKTLAYTLKKELVGISSLQTLAANCVGQTGLIVPLFDARRKNVYAGAYRFVNGVWQNELPDQHISLRELLEQLKNEPNLFFVGEDVEKFTEEIAQIIPHGEICDVPQWQIPNAAVLAALGSVAEPVENVHGFLPAYLKKVEAEENWLKTHTPNGESYVEKLLEHHHHHH”, the “soluble on expression in E. coli” value is listed as “not soluble”.
The result for “MARKTTVAKVGSKGPGSTKKTIQAVRPTVRTQGAVTRSQAALRGHMGITDSSTSTSSSRIPKEKLKKKASSRSRSRSRSKSTRRSRSKSTRSRSRSRSRSRSSTRGKKRAPKKAVTTKAARSISPVKVKKTEAIKSRGSSKTARRVSAAHK” reads “not soluble”.
For “MGNYLNPDNSKFQRAVNSDIYVDKTGLIKYTNRVINTMQAYVCVSRPRRFGKSMAADMLTAYYSRGCDSRELFAGLEIAKDENFGGYLNKYDTVFLNVQEFLSRSSDVKELIARIKQRVIRELTRQYPDVELFDSTDLAETMQDIYAESKCPFVLIIDEWDCIFREFKNDKEAQEKYLDFLRDLIKDKSYIHLAYMTGILPIKKYGTHSALNMFDEFSMIDPGPLASYVGFTESEVEKLCGEYQMDIDEIRNWYDGYSFEEVPSVYSPKSVISCMRLGRLGNYWNQTETFEALQLYIDMNFEGLRDDILSMLAGEEVPVNTGSFTNDMATFRTEDDVLTLLIHLGYLGYRYATKTVFIPNGEIRAEFVNAVSVSDWGEVSNALKNSADTLQAIWQGREKQVAEGIRQAHFETSHIQYNDENALSYTISLALYAARNFYTVHRELSGGKGFADLVFIPRKRFMDKPALVVELKWDKDVAGAITQIREKEYCRSLEEYHGKLLLVGINYDKKTKEHSCKIEEYRK”, the “soluble on expression in E. coli” value is “not soluble”.
As for “GQLDDVLMPYVGDQTEAQIYKKLRHFWIMLDRTLPDAFMHVNIGPTDNIICRTILRVDAELKQIAPNLTFMYDESITPDDLLRQATKNICDCSKPHIANYPIHANAYDGERFGIVSCYNSLPLAGGSNTLVRMNLKEVAKRAASRDDFFSNVLPTYHQLMTELMDARSSHLHEQSQFFQGFLTQEGLIEESRFAPMYGIYGMAEAVNLLLEKEGQTSRYGQDERANALGHEISASLATLVDSTPVRYGLEGKALLHAQGGISLDLDVTPGVRLPYGNEPDPVTYVQATAAHHQYYRAGISDILTIDETVKSNPEAMFNLCKGALNAGYREFTANVASNDLVRVTGYMVKLSDIAKYDAEGSRTNTTFLGAEAAKNTGILERSPRVVSQEMSPVYK”, the “soluble on expression in E. coli” value is recorded as “not soluble”.
Consider “MSEVYRLTCIVCPLSCSIEVEIEAGKIKDIKGYTCPRGKEWAIEEIRAPKRVVMSVIPVEGGKLPTVSVKTEKPIPKDKIPELMKMLAKLKLKAPVKVGQVVGEFEGVKIIATREALEHHHHHH”, for which the “soluble on expression in E. coli” value was “not soluble”.
“MSLKITADEALTLSKSNGSDIFLLCSFANKLREKFNGNHVDLCSVINAKSGNCSEDCAFCAQSAHHKANVSCYPLLNEDKILEMAKQREAYGARHCDIATSGLGYTGDEKDFQTILKAFKKMKENTNLKLCACLGTLTEKAMNSLAAVGVERYNHNLETAKSFYKNIVSTHGYDERIKTINYAKNAKMEVCSGMIVGLGETMEQRIEHALLLRDLNVDAVPVNILNPVKGTKLENAKPLSPMEIIKTFAIIRFILPDKIIRYAGGREKNLRSLQPLGFLSGLNGMLIGNYLTTNGQSVNDDFNMLKDLELEYEGHHHHHH”: the “soluble on expression in E. coli” value is “not soluble”.
The result for “MVTNKLITLLPDLATFIVVVNEGSFTAAAKKLGVTPSALSKLITRLENALSVKLFERTTRSLLITESGKKIYQQSVIMVEAAQQAVDISSSEHTVPSGSLTVAAPKAFLTIVLQPLITPFLTKYPKIQLKLRASDGDIDMIAQGIDVVFRLTDKPTEGLVMKEIGKVNLSLCASPTYLEERGIPHLPQELANHDCLFLGETTTDHIWEFVKGTESHVIAVSGRYAVNHSQMRLNGVKDGFGIGIFPDFVIKEALANNEVISVLSDWQIKGNYHGVIAMQYAQNKYIPSRLKVFTEFVKENLMKSKVNDERT” reads “not soluble”; that for “YTIYKEPLSLAPFEKIPSPLRRGLGKVAEVFPDGMRGKSLLQRGSMTMEERYYGNARSFNFDQMKRVIPWAKKEWDHREVTAPIYAQSEHMDPVARMQHLDLFTWMRGDILVKADKINMAHSLELRVPFLDKEVFEVAETIPYDLKIANGTTKYALRKAMEQIVPPHVLHRKKLGFPVPMRHWLAGDELFGWAQDTINESMTDQYFDKAAVLAMLNEHKNGVSDHSRRLWTVLAFMIWHGIFVEHRIDPGIEKRDYPVYL”, “not soluble”.
The result for “MAHHHHHHMPSFFPSMPPCDRAAMLTVCEARRQYLAAHVTQLYANTNPAELWSSIVKYRERNSTELLDTVNSYDELRLSYSGYRKVVYSLVFRVSPEEEKQASVEERESRKKLYFNHPFLSPATFLAFPRAEDGTIPAVPMYAFAAKRLLLYRMRVELELVARVLPPSLQDPATRVTHRLLCPPSSSSPLSNGLTQEDIEAFLYDLLPNLRLVRDMPPWMQPYYLCHASRKFMFMCDTRRTGAISIESMMKSDVFSELLRVFESDANDAIVVFTKGCTVDVAASLVTADAAEDDTIPALVLFHEGEGNNQDDMYIVKTLTDGVVLEVRRGQLYWNSGSTEFLQPDVLCMDNWFSLALMARIYEHFTSLDIDGDGVLTVDELSRYSDGSFTRLVIERAFECHVPHSGKRHIMDYKTYLDFVIATEHAATLPAMKYIWSILDLEENRKFVTVETLRCFCKAIANELIANGLMTDISAQSILSEVIDMINPKWHEWVELDDIVRSGHQATVLPILLSYRNFYAYDCREQTAAAANDEYA” reads “not soluble”; that for “MPNFWALPPEINSTRIYLGPGSGPILAAAQGWNALASELEKTKVGLQSALDTLLESYRGQSSQALIQQTLPYVQWLTTTAEHAHKTAIQLTAAANAYEQARAAMVPPAMVRANRVQTTVLKAINWFGQFSTRIADKEADYEQMWFQDALVMENYWEAVQEAIQSTSHFEDPPEMADDYDEAWMLNTVFDYHNENAKEEVIHLVPDVNKERGPIELVTKVDKEGTIRLVYDGEPTFSYKEHPKF”, “not soluble”; that for “MGSDKIHHHHHHMSEYIQLYRYLNSRLPGVERKRLVLLTGARQTGKTTLAKAKYADLRYVNLDAPENREAVRTIASAFWARDIGPAVLDEAQKEPVVFDKVKYAYDDGALSFSVLLGSSQILLLKKIRETLAGRISIYELWPLLMSEICNGSAAPPSSPPLVDCLFSDMTCDDFFGDKPGILLDMEDACRRRAEEHLLQWGGMPSLLPLNTEERRQWLKDYGYTYLERDMADLARLEDLMPFRKFQRLAALRSGCLLNYSELARDAAISVDTARRYLEYLRLSYQTVFLPPYHVNLTSAVVKTPKVYWLDVGLLRQLSGMQGPTTGEIYETMVVGELMKWMKTAGREGDVFFYRTRSGLEVDVLLETPSGVVGMEIKSRRVLAARDLTGLKEIALALGPRWRGGLVIYQGDELKRIGTPQLWAVPSRRLFTGIE”, “not soluble”.
The result for “MTVANWQVRDLTLILRTGEMQSRLEQARTDFGALLPETVYFQPSAIRLGEFDDEYILTRQELVYVYLREDIARQCALRRHLPSNSSNSGIMATAIPPWLMDARRLNRVMQERCDQGGLVHYYQGPHTNQFFLAIMPSNCFVRFGTDVINNENYGFYARGGNYTEEGEDDDDEMDDEDETGGAETRDSQTGNLINYPIIALGSCHLSALEHHHHHH” reads “not soluble”; that for “MGSDKIHHHHHHAASEAEYGKVSKAWTLHADGSQEYRSSMELTLFTHTAMNSTYGESFIVYNPDFQTLKIHSSYTRQKDGTIVKTPDNAFVEVLPRFAADAPAYNQLKEMVVVHTGLELGATIYLDYSIITKPGYYPALDINERLQETSPVKECKVSISVPEGTPLACGLYGSPVKAVEESHDGIKEVHWTLRNIPASSREAFQPKNREASPHLVASTYPSGKAALATLDKRLKESQGYESKTFAQFLTDKSGNEQEKVNIIRDHILNNLSTCPIPMAMTGYTVRDIDTVLRSAYGTPLEIAQLLNVMLNAAGIPSEVLAVYPGHLDTDACGLAAIQTLAVKATVDGKDQYLSASPLTNRGGLDKVVSLSGTSIEIETTPIQIKESRSVAISADQAKDGFAICVLPAISAGIDSWGMSALNSKRSNLFELPSLIREEVTYTVTPAEGMKLQTSTQEQVISKPFGKVTRTITPRGNTIEVVRTIELNKQQFTPAEYSDVRSLIHEWTNPDNRVLLFSL”, “not soluble”.

Values taken from the DeepSol protein solubility set.
